Experimental data published in publication PMC2856694.

Target: T1, gp96 from normal mouse organs (mouse (endogenous in mouse organs)), P08113
T1 chain: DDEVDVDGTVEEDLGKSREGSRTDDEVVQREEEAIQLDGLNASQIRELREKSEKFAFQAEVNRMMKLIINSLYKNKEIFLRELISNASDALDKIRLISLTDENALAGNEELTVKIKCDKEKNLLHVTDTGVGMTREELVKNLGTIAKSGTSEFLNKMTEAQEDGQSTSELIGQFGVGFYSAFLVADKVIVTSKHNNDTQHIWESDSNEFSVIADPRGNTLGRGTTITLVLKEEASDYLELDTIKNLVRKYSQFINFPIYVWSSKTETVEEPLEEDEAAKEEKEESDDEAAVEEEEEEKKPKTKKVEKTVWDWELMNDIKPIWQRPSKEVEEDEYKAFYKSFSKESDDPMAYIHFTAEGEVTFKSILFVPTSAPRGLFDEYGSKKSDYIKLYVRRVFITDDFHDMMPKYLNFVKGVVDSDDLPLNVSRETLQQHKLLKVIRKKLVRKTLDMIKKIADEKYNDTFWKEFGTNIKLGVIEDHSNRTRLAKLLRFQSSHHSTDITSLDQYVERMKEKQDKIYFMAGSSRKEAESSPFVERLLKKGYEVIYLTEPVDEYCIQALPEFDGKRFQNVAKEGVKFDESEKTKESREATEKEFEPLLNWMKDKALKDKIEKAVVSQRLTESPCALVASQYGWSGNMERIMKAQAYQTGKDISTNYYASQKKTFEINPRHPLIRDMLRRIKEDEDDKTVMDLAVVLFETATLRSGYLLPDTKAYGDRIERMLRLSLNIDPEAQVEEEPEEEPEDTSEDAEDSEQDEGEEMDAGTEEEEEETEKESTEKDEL
Experiment: non-reducing SDS-PAGE with immunoblot
Conditions: remark: other sources report otherwise

B1: gp96 from normal mouse organs, P08113 22-802 (natural protein)
chain: T1 chain
percent of total gp96 migrating at ~200 kDa (disulfide-linked dimer): < 50%
